For this experiment, the target named is BMP receptors.

Our source for the ALPase activity in MC3T3-E1 cells (times higher than the control group) and ALPase activity in C3H10T 1/2 cells (times higher than the control group) values is US7132397B1.

B1: unmodified mature human MP52 (ligand)
chain: PLATRQGKRPSKNLKARCSRKALHVNFKDMGWDDWIIAPLEYEAFHCEGLCEFPLRSHLEPTNHAVIQTLMNSMDPESTPPTCCVPTRLSPISILFIDSANNVVYKQYEDMVVESCGCR
B1 registered an ALPase activity in MC3T3-E1 cells (times higher than the control group) of 3.

B2: recombinant mature human BMP-2 (ligand)
chain: QAKHKQRKRLKSSCKRHPLYVDFSDVGWNDWIVAPPGYHAFYCHGECPFPLADHLNSTNHAIVQTLVNSVNSKIPKACCVPTELSAISMLYLDENEKVVLKNYQDMVVEGCGCR
B2 showed an ALPase activity in C3H10T 1/2 cells (times higher than the control group) of 40.
